One test deals with COL17A1. Briefly: COL17A1 expression in human epidermal keratinocytes by high content imaging (HCS). Format: cell-based. Conditions: Table 1; human epidermal keratinocytes, 48 hours after addition of reagents, fluorescence intensity per cell. On the procedure:
The present inventors further searched for substances that induce or maintain the expression of COL17A1. Human epidermal keratinocytes were seeded in 384-well plates, cultured for 48 hours after addition of reagents, immunostained with an anti-COL17A1 antibody and a fluorescently labeled secondary antibody, and then the fluorescence intensity per cell was detected using a high content imaging system (HCS: High Content Screening). In addition to cell counting with DAPI, the expression level of COL17A1 was quantified.

The test system of test [1] is human epidermal keratinocytes. The experiment in a line: Colony formation assay using human epidermal keratinocytes. Format: cell-based. Conditions: Table 1. The source says: To test whether COL17A1-mediated SCD maintains clonal proliferation of epidermal stem cell clones, the present inventors used a colony formation assay, which is an in vitro assay said to be the gold standard for assessing the self-renewal ability of epidermal stem cells, including cells in the tail epidermis.

B1: Epidermal Growth Factor (EGF): growth factor (protein, UniProt P01133 23-1207, looked up)
Pro-epidermal growth factor: PQHWSCPEGTLAGNGNSTCVGPAPFLIFSHGNSIFRIDTEGTNYEQLVVDAGVSVIMDFHYNEKRIYWVDLERQLLQRVFLNGSRQERVCNIEKNVSGMAINWINEEVIWSNQQEGIITVTDMKGNNSHILLSALKYPANVAVDPVERFIFWSSEVAGSLYRADLDGVGVKALLETSEKITAVSLDVLDKRLFWIQYNREGSNSLICSCDYDGGSVHISKHPTQHNLFAMSLFGDRIFYSTWKMKTIWIANKHTGKDMVRINLHSSFVPLGELKVVHPLAQPKAEDDTWEPEQKLCKLRKGNCSSTVCGQDLQSHLCMCAEGYALSRDRKYCEDVNECAFWNHGCTLGCKNTPGSYYCTCPVGFVLLPDGKRCHQLVSCPRNVSECSHDCVLTSEGPLCFCPEGSVLERDGKTCSGCSSPDNGGCSQLCVPLSPVSWECDCFPGYDLQLDEKSCAASGPQPFLLFANSQDIRHMHFDGTDYGTLLSQQMGMVYALDHDPVENKIYFAHTALKWIERANMDGSQRERLIEEGVDVPEGLAVDWIGRRFYWTDRGKSLIGRSDLNGKRSKIITKENISQPRGIAVHPMAKRLFWTDTGINPRIESSSLQGLGRLVIASSDLIWPSGITIDFLTDKLYWCDAKQSVIEMANLDGSKRRRLTQNDVGHPFAVAVFEDYVWFSDWAMPSVMRVNKRTGKDRVRLQGSMLKPSSLVVVHPLAKPGADPCLYQNGGCEHICKKRLGTAWCSCREGFMKASDGKTCLALDGHQLLAGGEVDLKNQVTPLDILSKTRVSEDNITESQHMLVAEIMVSDQDDCAPVGCSMYARCISEGEDATCQCLKGFAGDGKLCSDIDECEMGVPVCPPASSKCINTEGGYVCRCSEGYQGDGIHCLDIDECQLGEHSCGENASCTNTEGGYTCMCAGRLSEPGLICPDSTPPPHLREDDHHYSVRNSDSECPLSHDGYCLHDGVCMYIEALDKYACNCVVGYIGERCQYRDLKWWELRHAGHGQQQKVIVVAVCVVVLVMLLLLSLWGAHYYRTQKLLSKNPKNPYEESSRDVRSRRPADTEDGMSSCPQPWFVVIKEHQDLKNGGQPVAGEDGQAADGSMQPTSWRQEPQLCGMGTEQGCWIPVSSDKGSCPQVMERSFHMPSYGTQTLEGGVEKPHSLLSANPLWQQRALDPPHQMELTQ
modifications: Pro-epidermal growth factor
On to B1, for which the “COL17A1 expression level (control ratio)” value in the test with COL17A1 was “⊚ (one double circle (⊚) represents a 1.2-fold or greater increase)”. Also, in test [1], the “Colony area (control ratio)” value is “⊚⊚ (Two double circles (⊚⊚) in the control ratio of the colony number or colony area indicates an increase of 1.2-fold or more)” and the “Colony number (control ratio)” value is “⊚⊚ (Two double circles (⊚⊚) in the control ratio of the colony number or colony area indicates an increase of 1.2-fold or more)”.

For the origin of these results see patent US20260256870A1, “SKIN COMPOSITION” (Eaderm Co., Ltd., priority 2019, published 2026).
